The values below come from patent publication US20200332009A1 (Innovent, published 2020).

Where two headings read alike, the source gives them in different places.

In assay [1] the target is PD-L1 on CHOK1-PDL1 cells (Promega PD-1/PD-L1 Blockade Bioassay) (UniProt Q9NZQ7 19-290, limits assumed). Nature of the assay: cell-based or functional assay.
Assay [2] deals with T1, human PD-L1 overexpressed on CHO cells (CHO-PDL1) (human, UniProt Q9NZQ7 19-290).
T1 construct: whole, on cells; also called CHO cells overexpressing human PD-L1
T1 sequence (Q9NZQ7 19-290): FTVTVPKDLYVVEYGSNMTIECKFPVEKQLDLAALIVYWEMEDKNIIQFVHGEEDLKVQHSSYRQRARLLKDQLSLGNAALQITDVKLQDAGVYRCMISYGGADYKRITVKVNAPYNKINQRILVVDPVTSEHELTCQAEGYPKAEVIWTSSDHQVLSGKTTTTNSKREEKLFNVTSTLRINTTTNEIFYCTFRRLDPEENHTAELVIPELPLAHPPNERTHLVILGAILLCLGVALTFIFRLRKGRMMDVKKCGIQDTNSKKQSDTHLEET
Nature of the assay: flow cytometry (FACS) on CHO-PDL1 cells. (In general: In flow cytometry, cells or beads pass a laser one at a time.)

Assay [3] deals with T2, human PD-L1 (purchased from Acrobiosystems) (human, UniProt Q9NZQ7 19-238).
T2 construct: also called hPD-L1
T2 sequence (Q9NZQ7 19-238 limits assumed): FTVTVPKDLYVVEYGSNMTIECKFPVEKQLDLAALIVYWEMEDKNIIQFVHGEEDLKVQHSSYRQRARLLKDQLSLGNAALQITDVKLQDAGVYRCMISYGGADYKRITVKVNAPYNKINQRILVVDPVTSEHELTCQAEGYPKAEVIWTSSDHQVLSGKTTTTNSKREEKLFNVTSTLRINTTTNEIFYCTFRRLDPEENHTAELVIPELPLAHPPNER
Nature of the assay: biological optical interferometry (ForteBio), antibody on sensor, antigen in solution. On the procedure:
(§1) SD buffer, antibodies, and antigens (including human PD-L1, mouse PD-L1 and Macaca fascicularis PD-L1, all purchased from Acrobiosystems) each of 100 μL were added to 96-well black polystyrene half area microplates (Greiner, 675076). The sensors were arranged according to the positions of the samples. The instrument settings were as follows: the operation procedures were Baseline, Loading ˜1 nm, Baseline, Association, and Dissociation. The run time of each procedure was dependent on the rates of association and dissociation. The rotation speed was 400 rpm, and the temperature was 30° C. The KD values were analyzed by ForteBio analysis software.
The equilibrium dissociation constant (KD) binding of the humanized antibodies of different Fc subtypes of the invention to human PD-L1 was determined by ForteBio. The ForteBio affinity assay was shown in Example 2.
A general note: In BLI a coated tip is dipped into the sample, and binding shifts an interference pattern.

Another assay has as its target T3, human LAG-3-His (human, UniProt P18627 23-450).
T3 construct: also called hLAG-3; human LAG-3 antigen (ArcoBiosystems); not shown: His tag
T3 sequence (looked up): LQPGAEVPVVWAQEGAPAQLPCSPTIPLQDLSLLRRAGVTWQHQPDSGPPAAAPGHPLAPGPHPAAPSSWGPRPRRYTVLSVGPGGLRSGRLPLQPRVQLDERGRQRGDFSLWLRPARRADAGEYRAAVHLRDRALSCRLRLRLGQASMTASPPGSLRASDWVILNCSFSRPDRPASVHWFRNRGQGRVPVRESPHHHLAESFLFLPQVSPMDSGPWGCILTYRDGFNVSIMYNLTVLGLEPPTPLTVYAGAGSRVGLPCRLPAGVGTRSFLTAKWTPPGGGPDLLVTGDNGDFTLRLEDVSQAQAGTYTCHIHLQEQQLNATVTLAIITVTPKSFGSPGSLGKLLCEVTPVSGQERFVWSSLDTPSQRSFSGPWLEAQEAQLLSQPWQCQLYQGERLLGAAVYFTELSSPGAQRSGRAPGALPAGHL
Put plainly: biological optical interferometry (ForteBio), antibody on AHQ tip, human LAG-3-His 100 nM in solution, univalent, 1:1 model. The protocol:
The equilibrium dissociation constant (KD) for binding of ADI31853 to human LAG-3 (hLAG-3) was measured by biological optical interferometry (ForteBio). A ForteBio affinity assay of prior art was performed (Estep, P., et al, High throughput solution based measurement of antibody-antigen affinity and epitope binning. MAbs, 2013.5(2):270-8). Briefly, the sensor was equilibrated offline in assay buffer for 30 minutes, and on-line detection was then conducted for 60 seconds to establish a baseline. The purified antibody obtained as described above was loaded on-line onto an AHQ sensor (ForteBio) for ForteBio affinity assay. The sensor with the loaded antibody was then exposed to 100 nM of a human LAG-3 antigen (ArcoBiosystems) for 5 minutes before transferring the sensor to the assay buffer for dissociation for 5 minutes for dissociation rate measurement. Kinetic analysis was performed using a 1:1 binding model.

Assay [4] concerns the target T2, human PD-L1 (purchased from …). Nature of the assay: biological optical interferometry (ForteBio), antibody on sensor, antigen in solution. On the procedure:
The equilibrium dissociation constant (KD) for binding of the antibody of the invention to human PD-L1 was determined by biological optical interferometry (ForteBio). A ForteBio affinity assay of prior art was performed (Estep, P., et al, High throughput solution based measurement of antibody-antigen affinity and epitope binning. MAbs, 2013.5(2):270-8).
as §1
This is another data set of the same source.

Assay [5] deals with T1, human PD-L1 overexpressed on CHO cells …. Nature of the assay: flow cytometry (FACS) on CHO-PDL1 cells; the table gives no unit, the axis is Con(nM); the text gives this value to 4-26.6. The protocol: (§2) CHO-PDL1 cells were counted, diluted to 1×10⁶ cells/mL, and added to each well of a U-shaped bottom 96-well plates at 100 μL/well. The suspension was centrifuged at 400 g for 5 min, and the supernatant was discarded. […] The cells were resuspended to a volume of 100 μL/well, and then left on ice for 30 min. The suspension was centrifuged at 400 g for 5 min, and the supernatant was discarded. The cells were washed once with PBS. The mixture was centrifuged at 400 g for 5 min, and the supernatant was discarded. 100 μL of FITC-labeled secondary antibody for anti-mouse-Fab (Jackson Immuno Research) (diluted in PBS in 1:500) was added per well, and 100 μL of FITC-labeled secondary antibody for anti-human-Fab (Jackson Immuno Research) was added to the cells to which the positive control antibody was added. The cells were incubated for 30 min on ice in the dark. The cells were centrifuged at 400 g for 5 min with the supernatant being discarded, and were washed once with a PBS. The cells were resuspended with 100 μL of 1×PBS, and detected by FACS.

Assay [6] shares this target. Nature of the assay: flow cytometry (FACS) on CHO-PDL1 cells; the table gives no unit, the axis is Con(nM); the text gives this value to 4-79.2. The protocol:
as §2

Sequence of PD-L1 on CHOK1-PDL1 cells (Promega PD-1/PD-L1 Blockade Bioassay) (Q9NZQ7 19-290 limits assumed): as the sequence (Q9NZQ7 19-290) above

B1: HZ3266-IgG1N297A (antibody)
heavy: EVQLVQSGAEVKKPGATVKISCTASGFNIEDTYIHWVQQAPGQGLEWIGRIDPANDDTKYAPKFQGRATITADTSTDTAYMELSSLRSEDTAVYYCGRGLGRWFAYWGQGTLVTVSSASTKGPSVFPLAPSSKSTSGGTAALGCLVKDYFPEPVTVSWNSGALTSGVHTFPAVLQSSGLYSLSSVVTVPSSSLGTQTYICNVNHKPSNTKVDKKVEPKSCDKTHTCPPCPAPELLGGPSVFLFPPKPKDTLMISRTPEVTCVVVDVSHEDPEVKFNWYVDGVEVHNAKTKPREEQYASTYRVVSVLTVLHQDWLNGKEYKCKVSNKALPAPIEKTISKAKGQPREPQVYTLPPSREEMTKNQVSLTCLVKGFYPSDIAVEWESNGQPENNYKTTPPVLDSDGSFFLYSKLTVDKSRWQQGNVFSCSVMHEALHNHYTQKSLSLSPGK
light: GIVMTQSPDSLAVSLGERATINCKASQDVINAVAWYQQKPGQSPKLLIYSASNRYTGVPDRFSGSGSGTDFTLTISSLQAEDLAVYYCQQHYSPPLTFGGGTKVEIKRTVAAPSVFIFPPSDEQLKSGTASVVCLLNNFYPREAKVQWKVDNALQSGNSQESVTEQDSKDSTYSLSSTLTLSKADYEKHKVYACEVTHQGLSSPVTKSFNRGEC
notes: Humanized form of 3-266.1, human IgG1 with N297A, kappa
A word on the EC50: it is the concentration at which the effect is half-maximal. Higher therefore signals a less potent agent. By Kd is commonly meant the concentration at which binding is half-saturated. A low value points to a tighter complex. As for B1, the “EC50 of the NFAT luciferase reporter signal (blockade of PD-1 on Jurkat-PD1 cells binding PD-L1 on CHOK1-PDL1 cells)” value in assay [1] was 0.967 nM. Moreover, the EC50 in assay [2] is 1.78 nM. The same molecule had an equilibrium dissociation constant (Kd) in assay [3] of 0.724 nM.

B2: HZ3266-IgG4PAAK (antibody)
heavy: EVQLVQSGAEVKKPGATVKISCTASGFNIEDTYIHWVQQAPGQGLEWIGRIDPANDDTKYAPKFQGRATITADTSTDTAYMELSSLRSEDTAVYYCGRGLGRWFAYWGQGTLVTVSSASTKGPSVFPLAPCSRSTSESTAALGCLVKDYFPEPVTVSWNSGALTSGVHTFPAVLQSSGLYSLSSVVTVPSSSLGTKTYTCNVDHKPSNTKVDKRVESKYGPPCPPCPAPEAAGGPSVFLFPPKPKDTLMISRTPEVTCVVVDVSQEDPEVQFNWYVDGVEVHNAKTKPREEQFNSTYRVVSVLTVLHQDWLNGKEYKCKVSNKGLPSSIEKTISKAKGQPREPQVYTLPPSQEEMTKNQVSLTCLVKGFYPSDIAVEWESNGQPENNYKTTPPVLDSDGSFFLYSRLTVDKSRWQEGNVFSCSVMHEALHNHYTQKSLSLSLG
light: GIVMTQSPDSLAVSLGERATINCKASQDVINAVAWYQQKPGQSPKLLIYSASNRYTGVPDRFSGSGSGTDFTLTISSLQAEDLAVYYCQQHYSPPLTFGGGTKVEIKRTVAAPSVFIFPPSDEQLKSGTASVVCLLNNFYPREAKVQWKVDNALQSGNSQESVTEQDSKDSTYSLSSTLTLSKADYEKHKVYACEVTHQGLSSPVTKSFNRGEC
notes: Humanized form of 3-266.1, mutated human IgG4 constant region, kappa; also called HZ3266-G4PAAK; HZ3266-IgG4PAK
Molecule B2 gave a concentration for a half-maximal effect (EC50) in assay [2] of 1.86 nM. Moreover, in assay [3], the dissociation constant (Kd) was found to be 1.32 nM.

B3: HZ3266-IgG1 (antibody)
heavy: not shown
light: GIVMTQSPDSLAVSLGERATINCKASQDVINAVAWYQQKPGQSPKLLIYSASNRYTGVPDRFSGSGSGTDFTLTISSLQAEDLAVYYCQQHYSPPLTFGGGTKVEIKRTVAAPSVFIFPPSDEQLKSGTASVVCLLNNFYPREAKVQWKVDNALQSGNSQESVTEQDSKDSTYSLSSTLTLSKADYEKHKVYACEVTHQGLSSPVTKSFNRGEC
notes: Humanized form of 3-266.1, human IgG1, kappa
Consider B3, for which the “EC50 of the NFAT luciferase reporter signal (blockade of PD-1 on Jurkat-PD1 cells binding PD-L1 on CHOK1-PDL1 cells)” value in assay [1] amounted to 0.623 nM. The same molecule gave an EC50 in assay [2] of 1.81 nM. Moreover, the dissociation constant Kd in assay [3] stood at 0.935 nM.

B4: ADI-31853 (antibody, human IgG4 S228P, kappa, F234A L235A, V domains shown)
VH: QLQLQESGPGLVKPSETLSLTCTVSGGSIYSESYYWGWIRQPPGKGLEWIGSIVYSGYTYYNPSLKSRVTISVDTSKNQFSLKLSSVTAADTAVYYCARVRTWDAAFDIWGQGTMVTVSS
VL: DIQMTQSPSSLSASVGDRVTITCQASQDISNYLNWYQQKPGKAPKLLIYDASNLETGVPSRFSGSGSGTDFTFTISSLQPEDIATYYCQQVLELPPWTFGGGTKVEIKR
notes: also called anti-human-LAG-3 antibody
The term koff denotes a measure of how fast the partners let go of each other. High values mean fast dissociation, low ones slow dissociation. The kon is the second-order rate constant of association. A higher kon goes with faster complex formation. On to B4, for which, in the assay with human LAG-3-His, binding was characterised by a dissociation constant (Kd) of 0.622 nM, the koff stood at 0.0002 s⁻¹ and the kon was 322000 M⁻¹ s⁻¹.

B5: 4-79.2 (antibody, human IgG1, kappa, N297A, V domains shown)
VH: EVQLQQSGPSLVKPSQTLSLTCSVTGDSITSGYWNWIREFPGNKLEYLGYISYTGSTYYNPSLKSRISITRDTSKNQYSLQLNSVTTEDTATYYCAKAPRWLSAMDYWGQGTSVTVSS
VL: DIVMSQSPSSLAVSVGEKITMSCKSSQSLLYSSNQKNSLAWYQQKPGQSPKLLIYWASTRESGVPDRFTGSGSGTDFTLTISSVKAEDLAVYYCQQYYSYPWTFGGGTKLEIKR
notes: Same remark on anti-mouse detection reagents as for 3-266.1; also called chimeric antibody 4-79.2
Turning to B5, the EC50 worked out at 2.6 nM in assay [2] and 1.99 nM in assay [5]. Also, the Kd in assay [4] was determined as 7.56 nM.

B6: HZ4485-IgG1N297A (antibody, V domains shown)
VH: QVQLVQSGAEVAKPGASVKVSCKASGYTFTTYTMHWVRQRPGQGLEWIGNINPNSDYAIYAQKFQGRATMTADKSTNTAYMELSSLRSEDSAVYYCAKQSFDYWGQGTLVTVSS
VL: DIVLTQSPASLAVSPGQRATITCRASESVEFYGTSLLQWYQQKPGQPPKLLIYAASNVESGVPARFSGSGSGTDFTLTINPVEADDTANYYCHQGRKVPYTFGQGTKLEIKR
notes: Humanized form of 4-48.5, human IgG1 with N297A, kappa
As for B6, the “EC50 of the NFAT luciferase reporter signal (blockade of PD-1 on Jurkat-PD1 cells binding PD-L1 on CHOK1-PDL1 cells)” value in assay [1] is 0.683 nM. In assay [2], this molecule gave a concentration giving a half-maximal response (EC50) of 1.56 nM. This molecule also yielded an equilibrium dissociation constant (Kd) in assay [3] of 3.17 nM.

B7: 4-48.5 (antibody, human IgG1, kappa, N297A, V domains shown)
VH: EVQLQQSGAELARPGASVKMSCKASGYTFTTYTMHWVKQRPGQGLEWIGNINPNSDYAIYNQKFKDKATLTADKSSNTAYMQLSGLTSEDSAVYYCAKQSFDYWGQGTTLTVSS
VL: DIVLTQSPASLAVSLGQRATISCRASESVEFYGTSLLQWYQQKPGQPPKLLIYAASNVESGVPARFSGSGSGTDFSLNIHPVEVDDVALYFCHQGRKVPYTFGGGTKLEIKR
notes: Same remark on anti-mouse detection reagents as for 3-266.1; also called chimeric antibody 4-48.5
Turning to B7, the EC50 in assay [2] came out at 2 nM. This molecule also showed a Kd in assay [4] of 1.23 nM.

B8: 4-26.6 (antibody, human IgG1, kappa, N297A, V domains shown)
VH: QVQLKESGPSLVKPSQTLSLTCSVTGDSITSGYWNWIRKFPGNKLEYMGYISYSGSTYHNPSLKSRISITRDTSKNQFYLQLNSVTKEDTATYYCARGDLWPPWFAYWGQGTLVTVSA
VL: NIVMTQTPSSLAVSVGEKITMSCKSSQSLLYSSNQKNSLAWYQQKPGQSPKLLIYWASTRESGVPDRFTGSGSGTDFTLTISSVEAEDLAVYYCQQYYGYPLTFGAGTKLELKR
notes: Same remark on anti-mouse detection reagents as for 3-266.1; also called chimeric antibody 4-26.6
On to B8, for which the EC50 in assay [2] amounted to 1.99 nM; in assay [6] it was 2.6 nM. In assay [4], the equilibrium dissociation constant (Kd) worked out at 3.85 nM.

B9: 3-266.1 (antibody, human IgG1, kappa, N297A, V domains shown)
VH: EVQLQQSVAELVKPGASVKLSCTASGFNIEDTYIHWVKQRPEQGLEWIGRIDPANDDTKYDPKFQGKATITADTSSNTAYLQLSSLTPEDTAVYYCGRGLGRWFAYWGQGTLVTVSA
VL: SIVMTQSHKFMSTSIGDRVNISCKASQDVINAVAWCQQKPGQSPKLLIYSASNRYTGVPDRFTGSGSGTDFTFTISSVQAEDLAVYYCQQHYSPPLTFGGGTKLELKR
notes: also called chimeric antibody 3-266.1
In assay [2], B9 yielded an EC50 of 2.14 nM. The molecule also yielded an equilibrium dissociation constant (Kd) in assay [4] of 0.98 nM.
